The values that follow come from paper PMC7729955 (2020).

To fix the notation:
T1: biotinylated TGPAvi (Galaxea fascicularis (coral), biotin on the Avi-tag (BirA))
T1 chain 1: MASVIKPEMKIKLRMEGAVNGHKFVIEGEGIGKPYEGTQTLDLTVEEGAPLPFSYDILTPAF
T1 chain 2: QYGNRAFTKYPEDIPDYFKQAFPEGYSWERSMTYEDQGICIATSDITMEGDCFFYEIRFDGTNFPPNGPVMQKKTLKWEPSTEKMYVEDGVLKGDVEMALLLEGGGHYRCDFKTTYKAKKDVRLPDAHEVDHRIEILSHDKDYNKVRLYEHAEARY

B1: sybody 68 (VHH)
VHH: QVQLVESGGGLVQAGGSLRLSCAASGFPVNAVTMWWYRQAPGKEREWVAAIKSQGAGTWYADSVKGRFTISRDNAKNTVYLQMNSLKPEDTAVYYCHVYVGAYRYEGRGTQVTVS
B2: sybody 92 (VHH)
VHH: QVQLVESGGGLVQAGGSLRLSCAASGFPVDTQWMHWYRQAPGKEREWVAAISSTGRSTFYADSVKGRFTISRDNAKNTVYLQMNSLKPEDTAVYYCTVYVGNRYRGQGTQVTVS
B3: sybody 66 (VHH)
VHH: QVQLVESGGGLVQAGGSLRLSCAASGFPVMENSMYWYRQAPGKEREWVAAITSQGSWTWYADSVKGRFTISRDNAKNTVYLQMNSLKPEDTAVYYCHVSVGTNYTGQGTQVTVS
B4: sybody 44 (VHH)
VHH: QVQLVESGGGLVQAGGSLRLSCAASGFPVGRASMWWYRQAPGKEREWVAAISSYGWVTAYADSVKGRFTISRDNAKNTVYLQMNSLKPEDTAVYYCEVSVGTGYRGQGTQVTVS

The target of the first assay is T1, biotinylated TGPAvi. The assay can be described thus: BLI.
A word on the koff: it is the rate constant with which the complex falls apart. A higher koff goes with fast dissociation. B1 showed an off-rate (koff) of 0.0012 s⁻¹.

Consider B2, for which the koff came to 0.00066 s⁻¹.

B3 came in with a koff of 0.0013 s⁻¹.

B4 had a koff of 0.00085 s⁻¹. Against the preceding molecule, the koff is about 1.5-fold lower.

In a further assay the target is T1, biotinylated TGPAvi. The assay can be described thus: BLI. This is another data set of the same source.
By Kd is commonly meant the concentration at which binding is half-saturated. Low values mean a tighter complex, high ones a looser complex. For B1, the Kd is 10.4 nM.

Take B2: the equilibrium dissociation constant (Kd) turned out to be 3.3 nM.

For B3, the affinity, expressed as Kd, was 7.8 nM. Against the preceding molecule, the Kd is about 2.4-fold higher.

For the molecule B4, binding was put at a Kd of 4.4 nM.
